The target in data set [1] is CLEC12A. The data set is described as follows: ELISA binding of fusion proteins (FMC63 coat, HRP-anti-His detection). On the set-up: species or system human. The following applies: purified fusion protein, FMC63 coat; read-out: CLEC12A binding (ELISA EC50). As to the method: The binding of the biparatopic fusion proteins to CLEC12A was also examined by ELISA. […] The plate was left to incubate overnight at 4° C. The coated plate was blocked with TBS/0.3% nonfat dry milk (NFD) for 60 minutes at RT.
A general note: ELISA stands for enzyme-linked immunosorbent assay.

For data set [2], the target named is T1, CLL-1 (CLEC12A) on CLL-1 positive cell lines (U937, OCI-AML-5) (human, UniProt Q5QGZ9 1-265).
T1 sequence: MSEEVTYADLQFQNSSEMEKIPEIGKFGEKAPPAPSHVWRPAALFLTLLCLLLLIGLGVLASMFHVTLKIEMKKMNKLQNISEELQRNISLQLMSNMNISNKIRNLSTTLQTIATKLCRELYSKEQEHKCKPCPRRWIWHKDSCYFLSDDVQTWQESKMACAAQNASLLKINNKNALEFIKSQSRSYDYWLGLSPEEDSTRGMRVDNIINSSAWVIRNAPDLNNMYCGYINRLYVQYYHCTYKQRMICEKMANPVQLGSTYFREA
The experiment in a line: cell-based or functional assay.

The target of data set [3] is T1, CLL-1 (CLEC12A) on CLL-1 positive cell …. The data set is described as follows: flow cytometry on CLL-1 positive U937 cells, FMC63-PE detection. Background: A flow cytometer gives signals particle by particle.
A further data set has as its target biotinylated CD33 (UniProt P20138 18-259, biotinylated (site not stated)). The data set is described as follows: ELISA: fusion protein captured on FMC63, biotinylated CD33, HRP-SA.
Another data set addresses T2, CD33 on U937 cells (UniProt P20138 18-364, limits assumed).
T2 construct: whole, on cells
The data set is described as follows: flow cytometry on U937 cells (cell line per paragraph 272), purified fusion protein, detection with FMC63-PE, % Binding.

The test system of the next data set is FMC63. The experiment in a line: CD19 variant binding to anti-CD19 antibody FMC63 (score). The following applies: Table 1B, CD19 triple mutants.
Data set [4] concerns the target T3, CLEC12A (Homo sapiens, UniProt Q5QGZ9, K244Q).
T3 sequence (Q5QGZ9 65-265 K244Q): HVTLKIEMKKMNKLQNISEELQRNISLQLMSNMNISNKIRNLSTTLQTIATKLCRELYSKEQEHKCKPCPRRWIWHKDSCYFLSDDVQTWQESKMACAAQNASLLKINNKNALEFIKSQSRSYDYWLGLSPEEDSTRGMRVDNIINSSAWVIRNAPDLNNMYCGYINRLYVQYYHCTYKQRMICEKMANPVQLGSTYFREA
The data set is described as follows: ELISA of fusion proteins, FMC63 coat, biotinylated CLEC12A detection. It is filed as binding.

A further data set has as its target CD33 (Homo sapiens, UniProt P20138). The data set is described as follows: ELISA of fusion proteins, FMC63 coat, biotinylated CD33 detection. Type of data set: binding. Conditions: ELISA, FMC63 coat, biotinylated CD33. Here is the method: ELISAs for binding to CD19, CLEC12A and CD33 were run using purified fusion proteins #330, #410 and #440. A 96 well plate was coated with 1.0 μg/ml FMC63 (Novus) in 0.1 M carbonate, pH 9.5 overnight at 4° C. The plate was blocked with 0.3% non-fat milk in TBS for 1 hour at room temperature. After washing in TBST (0.1 M Tris, 0.5 M NaCl, 0.05% Tween20) 3 times, the fusion protein supernatant was titrated using 3-fold dilutions in 1% BSA in TBS and incubated 1 hour at room temperature. For detection by anti-His, after washing 3 times in TBST, HRP-anti-His (BioLegend) was added at 1:2000. The plate was incubated at room temperature in the dark for 1 hour. For detection of binding to CLEC12A, biotinylated CLEC12A was added at 0.5 μg/ml and incubated for 1 hour. This was followed by adding HRP-SA (Pierce) at 1:2000 and incubated at room temperature in the dark for 1 hour. For testing binding to CD33, biotinylated CD33 was added at 0.5 μg/ml and incubated for 1 hour. This was followed by adding HRP-SA (Pierce) at 1:2000 and incubated at room temperature in the dark for 1 hour. Then, 1-Step Ultra TMB-ELISA (Thermo Fisher) solution, was added and the plate read at […]. Curves were fit using a four-parameter logistic (4 PL) regression to calculate the EC50.

The next data set relates to Molm14 cells. The experiment in a line: CAR-CD19 T cell cytotoxicity bridged by purified fusion protein, luciferase Molm14 cells. Type of data set: cell-based. The following applies: FIG. 21A. Here is the method: To test cytoxicity, luciferase labeled Molm14 or U937 cells were targeted for cytotoxic killing using a CAR19 T cell preparation and the purified proteins #330, #410 and #440 added in a dose titration. 1×10^4 target cells were added to each well (96 clear round bottom plate) in RPMI medium. The protein titration was started at 180 ng/ml with 3-fold serial titration into corresponding wells (25 μl per well). CAR-CD19 T cells were added at various E:T ratios to the target cells. After 48 hours the plate was centrifuged (450 RCF for 5 minutes) and the cells were washed 1× with PBS then centrifuged a second time. 20 μl lysis buffer was added into each well. The cell lysate was transferred to a 96 opaque white plate. The plates were read in a luminometer with an injector (Glomax Multi Detection System, Promega). The percent killing was calculated based upon the average loss of luminescence of the experimental vs the control (target cell only or target cell plus fusion protein only).

Numbering of substitutions follows the chain as printed. In names and notes the source's numbering stands. Several values for one entry are separate records, joined by “and”; a condition that tells them apart may be missing. Equal entries are not always repeated.

B1: #321: purified fusion protein of CD19 variant and anti-CLL-1 VHH; SEQ ID NO:303 (protein)
chain: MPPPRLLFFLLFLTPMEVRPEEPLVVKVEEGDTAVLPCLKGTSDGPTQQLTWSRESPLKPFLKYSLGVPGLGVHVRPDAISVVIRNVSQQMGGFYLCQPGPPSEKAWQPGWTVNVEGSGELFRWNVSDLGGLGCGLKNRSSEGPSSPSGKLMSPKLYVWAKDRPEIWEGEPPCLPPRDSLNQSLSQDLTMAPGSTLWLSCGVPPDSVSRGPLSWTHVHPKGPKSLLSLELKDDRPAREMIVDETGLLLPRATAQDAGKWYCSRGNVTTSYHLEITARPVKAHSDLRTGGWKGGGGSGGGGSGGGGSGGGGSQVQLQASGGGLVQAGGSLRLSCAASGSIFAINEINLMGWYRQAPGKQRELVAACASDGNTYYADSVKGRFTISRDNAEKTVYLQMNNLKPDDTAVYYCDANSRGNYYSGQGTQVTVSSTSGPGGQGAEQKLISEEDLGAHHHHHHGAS
Consider B1, for which the EC50 on CLEC12A [1] amounted to 0.09 nM.

B2: CD19 variant-anti-CLL-1 VHH(1B12) (construct #321) (other)
chain: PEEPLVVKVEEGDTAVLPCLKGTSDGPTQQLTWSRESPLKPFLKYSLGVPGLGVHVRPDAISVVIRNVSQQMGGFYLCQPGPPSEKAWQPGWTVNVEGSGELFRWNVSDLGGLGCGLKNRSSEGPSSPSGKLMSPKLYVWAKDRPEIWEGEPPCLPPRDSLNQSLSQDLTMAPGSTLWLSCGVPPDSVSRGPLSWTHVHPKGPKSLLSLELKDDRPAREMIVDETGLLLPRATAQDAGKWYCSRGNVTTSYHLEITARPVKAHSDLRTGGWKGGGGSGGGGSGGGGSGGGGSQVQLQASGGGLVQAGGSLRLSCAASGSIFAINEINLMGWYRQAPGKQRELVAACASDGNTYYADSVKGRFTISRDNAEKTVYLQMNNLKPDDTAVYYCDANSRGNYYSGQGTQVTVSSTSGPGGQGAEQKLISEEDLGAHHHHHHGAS
notes: Fusion of a CD19 variant extracellular domain, linker, anti-CLL-1 VHH 1B12 and myc-His tag
Regarding B2, the “CLEC12A-cell cytotoxicity (IC50 n = 2-3)” value in data set [2] came to 0.027 nM. This molecule registered a concentration for a half-maximal effect (EC50) in data set [3] of 3 nM.

B3: anti-CD33 scFv-variant CD19-His (construct #410) (other)
chain: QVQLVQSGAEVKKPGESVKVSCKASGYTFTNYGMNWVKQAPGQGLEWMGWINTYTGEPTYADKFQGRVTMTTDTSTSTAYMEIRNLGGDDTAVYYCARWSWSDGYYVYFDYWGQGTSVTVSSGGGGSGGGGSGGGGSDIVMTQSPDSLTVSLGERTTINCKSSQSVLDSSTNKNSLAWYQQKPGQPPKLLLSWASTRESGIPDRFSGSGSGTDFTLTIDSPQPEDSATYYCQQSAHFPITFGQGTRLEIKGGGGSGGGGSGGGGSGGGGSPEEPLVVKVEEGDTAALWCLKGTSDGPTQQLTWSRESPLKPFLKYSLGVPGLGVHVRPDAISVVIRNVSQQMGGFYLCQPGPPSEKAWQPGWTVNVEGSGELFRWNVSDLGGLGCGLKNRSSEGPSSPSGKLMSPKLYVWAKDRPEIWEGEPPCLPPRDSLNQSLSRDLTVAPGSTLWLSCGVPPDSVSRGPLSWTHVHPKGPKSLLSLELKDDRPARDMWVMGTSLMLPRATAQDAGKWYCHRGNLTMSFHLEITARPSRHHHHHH
notes: also called anti-CD33 scFv fusion protein
Take B3: the EC50 with biotinylated CD33 is 0.003 µg/mL and 0.0522 nM; with CD33 on U937 cells, 0.0213 µg/mL and 0.37 nM.

B4: W62W/F64T/F66A: CD19 variant (protein)
chain: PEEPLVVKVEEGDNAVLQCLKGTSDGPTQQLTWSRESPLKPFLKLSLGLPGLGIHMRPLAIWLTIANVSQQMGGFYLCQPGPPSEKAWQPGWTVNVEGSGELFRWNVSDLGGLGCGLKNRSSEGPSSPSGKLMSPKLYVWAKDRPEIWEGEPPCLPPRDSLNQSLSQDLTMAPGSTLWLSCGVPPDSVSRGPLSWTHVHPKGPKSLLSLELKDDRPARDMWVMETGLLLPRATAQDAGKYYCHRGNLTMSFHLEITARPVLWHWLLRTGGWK
As for B4, the “FMC63 Binding Score” value with FMC63 was determined as 13.9 ± 4.

B5: W62D/F64A/F66S: CD19 variant (protein)
chain: B4 chain with W62D, T64A, A66S
Take B5: the “FMC63 Binding Score” value in the data set on FMC63 was 15.5 ± 5.6.

B6: W62S/F64R/F66R: CD19 variant (protein)
chain: B4 chain with W62S, T64R, A66R
Consider B6, for which the “FMC63 Binding Score” value with FMC63 was 13.7 ± 1.9.

B7: W62S/F64V/F66S: CD19 variant (protein)
chain: B4 chain with W62S, T64V, A66S
For the molecule B7, in the data set on FMC63, the “FMC63 Binding Score” value was 15.4 ± 2.8.

B8: W62G/F64V/F66K: CD19 variant (protein)
chain: B4 chain with W62G, T64V, A66K
As to B8, in the data set with FMC63, the “FMC63 Binding Score” value worked out at 12.3 ± 2.3.

B9: W62G/F64V/F66R: CD19 variant (protein)
chain: B4 chain with W62G, T64V, A66R
In the case of B9, the “FMC63 Binding Score” value with FMC63 stood at 14.1 ± 1.9.

B10: E224G/G226R/L228I: CD19 variant (protein)
chain: B4 chain with T64F, A66F, E224G, G226R, L228I
In the case of B10, the “FMC63 Binding Score” value with FMC63 came out at 12. ± 2.

B11: #410: fusion protein containing the CD19 ECD and anti-CD33 scFv; SEQ ID NO:325 (protein)
chain: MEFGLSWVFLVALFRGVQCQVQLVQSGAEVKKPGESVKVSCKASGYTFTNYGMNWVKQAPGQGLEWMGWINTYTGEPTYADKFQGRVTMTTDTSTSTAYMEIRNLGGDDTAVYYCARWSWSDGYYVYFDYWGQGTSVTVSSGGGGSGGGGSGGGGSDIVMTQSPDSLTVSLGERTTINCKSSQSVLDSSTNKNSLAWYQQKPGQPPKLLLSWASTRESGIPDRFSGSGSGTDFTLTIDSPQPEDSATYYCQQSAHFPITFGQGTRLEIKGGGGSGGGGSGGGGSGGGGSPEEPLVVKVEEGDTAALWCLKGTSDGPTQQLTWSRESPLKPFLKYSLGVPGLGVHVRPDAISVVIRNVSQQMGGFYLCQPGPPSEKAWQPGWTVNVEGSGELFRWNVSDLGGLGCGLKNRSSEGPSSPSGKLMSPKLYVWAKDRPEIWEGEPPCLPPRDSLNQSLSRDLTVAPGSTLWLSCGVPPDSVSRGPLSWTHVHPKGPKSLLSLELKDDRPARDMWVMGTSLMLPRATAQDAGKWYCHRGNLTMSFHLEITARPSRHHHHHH
Take B11: in the data set with CLEC12A [4], the “CLEC12A binding EC50 pM” value is “∞” and the “CLEC12A binding EC50 ng/ml” value is on record as “∞”. Besides, the “CD33 binding EC50” value with CD33 is 3.0 ng/mL. The “cytotoxicity on Molm14 cells” value in the data set with Molm14 cells is reported as “about equipotent”.

What is called EC50 is the concentration giving half of the maximal effect.

For the origin of these results see patent publication US20220387487A1, “COMPOSITIONS AND METHODS FOR TREATMENT OF CANCER” (Aleta Biotherapeutics Inc., priority 2019, published 2022).
